Data set [1] relates to recombinant human proPR-3 secreted from Sf9 insect cells.
In data set [2] the target is recombinant human proPR-3 secreted from Sf9 insect cells (human) (UniProt P24158). The experiment in a line: cell-based or functional assay.

Where only a bound is given, the exact number is not on record here.

recombinant human proPR-3 secreted from Sf9 insect cells (human), sequence (P24158 26-256 V119I): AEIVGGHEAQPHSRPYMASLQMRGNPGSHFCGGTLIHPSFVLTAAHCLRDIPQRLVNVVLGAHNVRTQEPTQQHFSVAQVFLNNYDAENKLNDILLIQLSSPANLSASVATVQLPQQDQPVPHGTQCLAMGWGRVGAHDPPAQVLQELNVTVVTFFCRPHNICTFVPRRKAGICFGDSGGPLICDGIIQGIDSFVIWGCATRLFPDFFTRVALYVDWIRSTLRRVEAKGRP
recombinant human proPR-3 secreted from Sf9 insect cells, sequence (chain, as listed by the source): as the sequence (P24158 26-256 V119I) above

As for “bovine dipeptidyl peptidase I (Boehringer Mannheim)”, in data set [1], the “activation of proPR-3 (PR-3 activity on Boc-Ala-ONp after DPPI treatment)” value is 1.25% (wt/wt) was determined the minimum amount of DPPI required to obtain complete activation of PR-3 in 3 hr. at 37 °C.
As for “bovine dipeptidyl peptidase I (Boehringer Mannheim) (from UniProt Q3ZCJ8 25-463) (enzyme)”, in data set [2], the N-terminal sequence of PR-3 after preparative DPPI activation is > 85%.

For the origin of these results see US6586222.
